Test: soluble on expression in E. coli; label from the status in PepcDB or PDB records

Soluble on expression in E. coli, not soluble:
MGSDKIHHHHHHMQRYDAVISGAGPAGCSAALSLAQKGRRVLLIDKARFPREKICGDGVTAASTELLEEMGVLELLRQRPGSLTEFRGATFVSPGGTVVQGRILRNGHLSGSSYVIPRMVLDDSLVSRVKEHSSITFLDKTTVTGLVMDGDRARGVATSAGEFCGRIIIAADGAYSPIAKQLDLWNRDKRQQGFAMRAWFSGVEGLGDSIELCYDKAMLPGYGWIFPAGEQRANVGVFLLPRFADQRSTKRLFKSFVKENAFAAARLKNAVMEPGSLKSWPLPFGSFAGRRGRGNVLLAGDAGSFIDPLTGEGIYYALKTGRYAAEAVANALERNDESAALTRYEQLWRGEFSGRVYFPGYAFQHFMNNSWFVDTFMRYTAKKQHRADLLADVVAHNRKRRELFKLLNPFY
MGSDKIHHHHHHMQTLTIDVGGSKALFELQLAGHTEQYKIPTGEGFKIEELNNQIAALERDYDLQDYQLAIAVPGLVQHHRLVACKSLPGLNGLSIDTVKTQGTLKIISNDIDAGMQALCDAKYACELLVMCGSGIGMSIAFNGQVFSGATGVAGELGHCRIMSESGEFRLEQLASGDSVRSRNITSQEDLYRAGSYLGMGLAWAVNLLNPNRIWLAGGMMNSTPYYKGCIDNLKRMALSAPLAEMKIHRVDDMETLVCRGLSVILARDVSLT
MGSDKIHHHHHHMQVEGLSINLATIREQCGFAEAVDICLKHGITAIAPWRDQVAAIGLGEAGRIVRANGLKLTGLCRGGFFPAPDASGREKAIDDNRRAVDEAAELGADCLVLVAGGLPGGSKNIDAARRMVVEGIAAVLPHARAAGVPLAIEPLHPMYAADRACVNTLGQALDICETLGPGVGVAIDVYHVWWDPDLANQIARAGKMKAILAHHICDWLVPTKDMLTDRGMMGDGVIDLKGIRRRIEAAGFHGAQEVEIFSADNWWKRPADEVIATCVERYRNCC
MGSDKIHHHHHHMQYIHVVNGDVAGNTLRQALAQAARPDPVVVLRDDLAVGPLVDVDSTGSIRSGFWQRVAPHTDIDFAAEMRQALDQLQKLRQSDMEIAIWHGQSAADQLMLRRVVFHLYQAPQRINEVAMDLRELELPPQAGLAAIGMYSPARLARRFSTIAPVSVLRLGRLGYEWQQNVRENADVRLWKGNTLVAAAYHSIDDIIMERAPSEWTPAAEVVGSVMGAIEGLLASDWFVFWRCRELISMGRMVLRGNADSLDTCELRRHVIASAE
MGSDKIHHHHHHMRAHCRHSLWRKENMMESKIYPHEVSLETIDSMPDEYRDTLIHQLLANGEGELSAGDTYIDSFYPLAPDADERYICAQFAAEEVDHFRRFSRLLAELEVDTSHMLSQKKAERRYFAAESMTTDFRSWEERAAFSFLCELEGHYQIKEMVSSSYLPLRAEAEAVLKEEARHFSHGALLMRRAAKDGDARARAQDALDRLYPMAMDMFGRSDSHRSDAAVSWGLRQYTNGQLRDRYRDDVRGHIQRLGYEVPDETARRKYF
MGSDKIHHHHHHMRDLNRLDDLLQGYEFMKKINDNWEIIENGLNLSDYEIEHLRKRITNLVIASGGNSSNEVVDLRVSKLQNKIFELAKDRLDSDLDSLADSLKNMMTRITSIELTNEQVLYMLNRLYGLDAGSIEVYVDSVSGDDTAGTGEKNKPFKTINKATMNFPRVFNSNTLRLWINPGRYDEDVIIPPLSGVTLYILSSNYETVDPAAGPTTCQIRSISVSDTSGYIYIAGIEQTNTAGTTKNYFIKAIRCGFVRITKCRMAFNTKAIDPFTAVFIDACSADVNGCYFASQNVDVRGYNTARVEVQNTTHGAKSAIGLYPQSADIFNLNSGTWEADTPTKLSGGGVVRT
MGSDKIHHHHHHMRDMCSISGIIVKDNQISAKYSIDMMKILKHRGRDNSGLLLDDEVIYFNDFEDVEDLEEEMIGNLSLAHNRLAIVGRYGVQPIPNEDETIWLVCNGEIYNYIELREYLKQNHEFRTDSDNEVIIHLYEEEKLEELDGDYAFAIYDKSKNVVRLARDMFGVKPLFYVDRDKYFAFASERKALWHLLINIDGCERDLDELNSKIKTLKPNSQLIYYLDDNRFEIIEGFKKLELNYMKERSYEEAKEYLDRALKNSVLKRVRGLDKVGIICSGGVDSSLIAKLASLYCEVILYAVGTENSEDLIYAERLAKDLNLKLRKKIISEEEYEEYVFKVAKAIDEVDLMKIGVGIPIYVASEMANEDGLKVVLSGQGADELFGGYARHERIYRERGEEELKKELLKDVYNLYKVNLERDDHCTMANGVELRVPFLDEEVVEIALSIPIEYKMSELSNRPYAESNISLKSEPINGLKNTNLNIKCVRSVRKKILRDVASQYLPDYIAYRPKKAAQYGSGGEKMIYKVAKKYGFSKKRINEFLDMLKRKIVSEF
MGSDKIHHHHHHMREIDVHPAFTDLNGSGPDPDLSPLPVVARVGSYSMGWRVEAHAHQRGQLMFVTNGSMRVETRDGSWITPPGRACWIPSAAVHSAIYTQASKMQTVLIAPELLETLPKRCCVIKLTPLLRELVSQAVAINNQYTLHSREHRLMQVLVDQISTAQQAPLFLPEGRDPRLRRVTESLHQNPGDDRSIEAWAQIAGASARTLARLFQKETGMTYSSWRQQLCLIRAVEMLTEGASVTNIALALGYESTAGFTSMFTRSMGESPSNYLTRWSQETTASE
MGSDKIHHHHHHMRESPLILPFDPAGIALDRSRGLSQQLYQALRARVLDGRLSSGTRLPATRDLAAMLALSRNSVVRAYDQLYAEGFIESRVGDGTYVSRLPKLSTQVSTGLSLGLSTGLSTFRQENTEDLSSGRHISAPLQRLKNNHLPPPRSGLPRAFRVGIPAFDLFPFDVWAKLQAGFWRNPSPAQLGYGDPAGEPALRDLIAAYLRRSRGLSCTAEQIVITSGAQQAISLCAQLLLQPGDGVAVENPGYRAAAHAFTLAGGRVCGVPVDEDGLDCGRLEQLTDCRLTYVTPAHQYPTGVTMSLARRLALLAWAERSDGWIIEDDYDGEYRYSGAPLAPLAALDRHGRVLYVGTFGKIAFPALRLGYLVLPSKLVQAFSQGRAIAVRHSEVSSQCVMAEFMARGHFQRHIRRMRKAALKRRDVLKAGWPVDIPGLGAMPEVAAGLHVKVNVDNFAREQELVAKAEAVEVEVTPLSNFWLADCEVPVDKRAGLVLGFAAVPEGEIAEALMKLRKVWRK
MGSDKIHHHHHHMRETPFRLLLDARACRKKGSAAILQRQRERLVEMVTYARTCSPYYRQLYQGLPARITDPRLLPVTTKAALMAHFDDWVTDPAVTLEGTQSFVADPSLLGEKFLNRYTAATTSGTTGTRGLFLLDTRTLAVSKALTFRMLSSWLTPADLMGIIRGRGRIAMVVATGGHFASAAAAAALRKGPARHSVRVFPVQTPIPDLVAQLNSFRPALLAPYASTGRLLASEQEAGRLTIQPVAVILSAEGLPAGEYARISGAFGAKVRQGYAATECPFLSYSCQEGWLHVNSDWAILEPVDANHEPVPPGQPSHTVLLSNLANRIQPILRYDLGDSVTARTDPCRCGDPTPAIHVQGRNAELLTLQGNRLAVAVTPLTLSTALDRVQGLSKGQIIQTGPQSLSLRLQPAAGADPENVWESARSEITRALTSHGLGNVTITRDAGPPLLTPGGKHRTVVPLPP
MGSDKIHHHHHHMRFRERRFYMFYGKLQGENGDRFRAALQTMQELFGSVYASDNLIGLQRAGGFREDKKFVETLRRNAQTQQELSIAWRLHTLLWAAQNVMHLPGDFVECGVWKGFCFAFLTDYLDFAKSDKTLYLYDTYQGIPEAMNSEKRSNQVYEKDIAQDPNAILKVVQQRFANVPNARIVQGMVPDSFAEACPERIALLHIDMNSAASEIAALEALFDKVVPGGMIVFDDYGWTGYAAQRHAENAFMAARGHTVLEIPTGQGLVIKH
MGSDKIHHHHHHMRFWDIRRVENVSLNLQLENGKLEKPRYNKSTSKGFRVLKNGFWGIFEGNVADDEGLRQAEKNAFTQGDGDIEEIATKGRYRMRVKRDPQDMSIEEKVELLKDLEKIIRDVCVSTKLVYFENRRVLQYRDSCGSEVEYEVLRTGVSIMGVGKGRSLQFLSKRQMRVGGYEVLDGVDEKAYEIVEVLPKLVNALAPPSGEMSVVMDSSLAGVFVHEAFGHAVEADHVLQGATVLKGRLNEKVADESVTIIDDPTLPEFGFFPFDDEGVRAEKKVIVEDGVLKSFLHSRETAKKLGGVAGNARSQGVDVPIVRMSNTYIDTHHYSFDELLEECRDGVYLVGSRGGETNPATGYFHFNAQYGYLIKNGELAEMVRDVSLSGNTLEILRNVKIGREIEFDPGFCGKAGQLVPVSDGSPPVLCRATVGGA
MGSDKIHHHHHHMRFYPWLQWLKRKTAGAGCVHQFIQTQCPAPAESGTQEPPPAEQDTQTESNAMPSLALRIGDKNFRATLYDNDSTRSLLKKLPLTLTMDELNGNEKFYFFSEKLPSASERVGSIKTGDLMLYGSDCLVLFYESFPTSYSYTRLGTVDDVTGLANALGSGSVEVTFSIN
MGSDKIHHHHHHMRGWILYKETATQLKPEWYEIERLLAAAKADNIELEVYAPDEFDLTVTREDNKSILLNGQPVELPDFIIPRMGSGTTYFALAIIRHLERLGVYCLNPSKAIEIVKDKLFSQQLLAEKNLPTPKTMLVKFPVDIDLVERHLGFPVVIKTLSGSQGSGVFLSHKAREFDDLMQLIEATNKNANIILQEFIANSHGRDLRVFTIGGRVAGCYERRGQEDSFKANVSAGGSARPFDITPEIEWLATQTANILDLDVAGIDLLFDNGHYKICEANSSPGFEGLESCLNVDIAAQILHFIRIRLGMFNKDEKNSDPQLTHAGPALANNVTSSKAAE
MGSDKIHHHHHHMRHDKFAGPAYTIQIVSNALDMLELLAMRPANPSLGRLAGSLNLTRNKAYRLLSTLCERGLVEQDPETGTYAIGVAALELAQRLIRQAPVVNHAHPIMEELARKHDEAVYMTVLRGDDVVFLDMVDCERQVKATPLIGRRFPYFTNAAGKAIKALEGADPLNLLKKRGRKNNSLDVGSLLSELHEIRHKGVAVDCGGLGDGIVSVAVAVRDYAGKVVGAITMLVPSFRAVADRLESEIIPSLQEGADLLSMKLGHGPC
MGSDKIHHHHHHMRIAIIEDEPLAAEKLAGYIQRQWPEAKIIATLSSVDAVIEFFNQPQNLDLLFSDIELSDGQVFSALEQIDVPCPVIFTTSYNDYWMNAFQNQGIEYLLKPFSFKRFSQAVANYQALFEQRSKIETTSFKQRFIIKQQGASEMLNVAEIHCFRAANGTILAGDKQGQYHILSDNNLSQLEAQLDPKVFFRINRADIININSLIKFETYTKETLALYIKGYSEALVTSKTRTANFRKWLEA
MGSDKIHHHHHHMRIAIVTHVVRHNDGQGRVNYEIARAALAENYEVTLVASHVAPELLADPRVRWVPVKVGRFWPSNLVKQQVFALKSAWWLRAHRGEYDVLHVNGFISWISADVNTAHFVHGGWFKSPYYPFGLTKGMWSAYQYVYTRVNTALERWAYRRSRAITAVSQKVADEIAGLGIDSRKISVIYNGVDGSAFAGAQPDRAAFKLPDDAFLLLFVGDLRTPRKNLGTVLKALTKLPANVHLAVAGYLPGSPYPDEARALGIDSRVHFLGLVKNMPTLMSSVDAYVFPSRYEAMSLSLLEAMAAGLPVVTARTAGGAEIITRECGIVLEDPDDPAALAQAIGSLAASRDTCRAMGDAARELMTRFGWAHMGAQYVALYRRIGQPTQPSAFERVEHAVTQEQS
MGSDKIHHHHHHMRIDVDAFKVLEVLVEEGSFAKAAERLHKAQSAVSYQIKKLEQHLGVSLLSREQYRAELTAEGRVILAEGQRLLSHLANIEHLASRFSEGWEPKLELVIDGALPMEPIMTALKRMAEHQIPTKIQLNMEFLGGVQHRFERDNADLMLVKDYRTGPYYYAKPLPAITSVLLAAPHHPLAGRKALTLTELQQHVELTIEDSSPVKTYRDELQFGGDKVFYLSGFIMKKNALLKGLGFGWMPDFLVRDELKAGLLTEIDFVGGSRYTFVPQLVSTLERPLGRAGRLFTELILEEFAKEPMGIPEGLG

Source: the DeepSol protein solubility set
